# Data reported in US20050064507A1, “Determining kinase specificity” (priority 2003, published 2005).
# Molecular target: T1, PKA (Homo sapiens, UniProt P17612)
# T1 construct: purchased Calbiochem
# Experiment: In vitro kinase assay: peptide phosphorylation by PKA
# Assay type: biochemical
# Conditions: normalized to best substrate
# Procedure: (§1) Catalytically active preparations of the kinases of interest were either purchased or prepared. Purchased and tested active kinase preparations including the following: PKC-alpha, PKC-delta, PKC-epsilon, PKC-zeta, PKC-mu, PKA, PKG from Calbiochem, ROK alpha/ROCK-II, active from Upstate Biotechnology, and AKT1 from Panvera.
# (§2) The conditions of the kinase assay and the amount of active kinase used varied with the kinase and with the accuracy needed. For a typical experiment, 5-20 ng of kinase was used per well and each peptide pool was assayed in duplicate wells. Note that the absolute amount of kinase used was not usually a critical parameter, because the desired information related to specificity of the kinase not its absolute activity, and robustness of the assay depends on comparisons of the same amount of kinase on different peptides. The combination of kinase concentration and assay duration was modified to assure that the stoichiometry of peptide phosphorylation never exceeded 5%. The choice of kinase buffer depended on the kinase being analyzed. For studies of PKC, 100 mM HEPES, 0.05% Triton-X100, 1 mM CaCl2, 20 mM MgCl2, 0.2 mg/ml phosphatidyl serine (Avanti Polar Lipids), PMA 100 ng/ml was typically used. The lipid stock was prepared by transferring 3 mg phosphatidyl serine into iced mixture of 450 μl water plus 50 μl of 10% Triton-X100, sonicating 10 times on ice for 1 sec each.
# (§3) The kinase reaction mixture was assembled by sequential addition to a tube held on ice of: 5 μl peptide (100 μM for final concentration of 10 μM), 15 μl of kinase (typically 5 ng/well, in appropriate kinase buffer), 30 μl of ATP (1 uCi/well of ^32P-gamma ATP in a stock of 167 μM cold ATP in the kinase buffer; for final concentration for 100 μM ATP). The mixture was rapidly warmed to desired reaction temperature (30° C. for PKC) and incubated for the desired duration (usually 10 minutes). The kinase assay was terminated by transfer to 4° C. water batch, and rapid addition of an equal volume (50 μl) of stop solution [0.1M ATP+0.1M EDTA in water, pH 8].
# (§4) The peptides were then captured from the reaction mixture by transfer to a Reacti-Bind Streptavidin High Binding Capacity Coated Plates (HBC) (Pierce Biotechnology) as follows. The HBC plates were pre-rinsed three times with PBS/Tween PBS/Tween20 0.05% (PBS/Tween). Part of all of the reaction mixture was then transferred wells of a HBC plate pre-filled with 90 μl of phosphate-buffered saline (PBS); typically each aliquots of each phosphorylation reaction were transferred to duplicate HBC plates to assure accuracy by additional replication
# (§5) For kinase assays done at the standard peptide concentration of 10 μM, the peptide concentration in the reaction mixture becomes 5 μM after addition of the stop solution; consequently 10 μl of the reaction (50 pMoles of peptide) was transferred to the HBC plate. More generally, the amount of reaction mixture transferred was estimated to be about 50 pMoles of peptide. […] The HBC plates were incubated for 0.5 to 1.5 hr at room temperature for complete binding of biotinylated peptides to plate-bound streptavidin. The HBC plates were then washed extensively with PBS/Tween. Five washes were done routinely and additional wash steps were added if the wash solution removed from the plate had measurable radioactivity as detected using a Geiger counter. This step is essential to obtaining a good the signal to noise ratio because the fraction of radioactivity incorporated in the peptides was a tiny fraction of the total in the reaction mixture. The wells were air-dried. A volume of 40-50 μl of microScint-20 (Packard Instruments) was added to each well. The plates were covered with stick-on film sheet. Radioactive emissions were measured in a TopCount NXT Microplate Scintillation and Luminescence Counter (Packard Instruments). Typically samples were counted for 5 minutes (or more) to improve the signal to noise ratio when counts were low. […]
row,Substance,PKA phosphorylation [%]
1,77 (KKKKRASFKRKSSKKG) [compound 77],4
2,78 (KFARKSTRRSIRLPE) [compound 78],5
3,79 (NRKKKRTSFKRKA) [compound 79],3
4,80 (KKKKKRFSFKKSFKL) [compound 80],3
5,82 (PRLIRRGSKKRPAR) [compound 82],10
6,83 (RKIPKRPGSVHRTPSRQ) [compound 83],2
7,84 (QKKSRLRRRASQLKI) [compound 84],63
8,85 (RFARKGSLRQKNV) [compound 85],81
9,86 (RQRKRKLSFRRRTDKD) [compound 86],87
10,89 (EYLERRASRRRAV) [compound 89],4
11,90 (AQIVKRASLKRGKQ) [compound 90],3

# Molecular target: T2, AKT1 (Homo sapiens, UniProt P31749)
# T2 construct: purchased Panvera
# T2 sequence (P31749 whole entry, species assumed): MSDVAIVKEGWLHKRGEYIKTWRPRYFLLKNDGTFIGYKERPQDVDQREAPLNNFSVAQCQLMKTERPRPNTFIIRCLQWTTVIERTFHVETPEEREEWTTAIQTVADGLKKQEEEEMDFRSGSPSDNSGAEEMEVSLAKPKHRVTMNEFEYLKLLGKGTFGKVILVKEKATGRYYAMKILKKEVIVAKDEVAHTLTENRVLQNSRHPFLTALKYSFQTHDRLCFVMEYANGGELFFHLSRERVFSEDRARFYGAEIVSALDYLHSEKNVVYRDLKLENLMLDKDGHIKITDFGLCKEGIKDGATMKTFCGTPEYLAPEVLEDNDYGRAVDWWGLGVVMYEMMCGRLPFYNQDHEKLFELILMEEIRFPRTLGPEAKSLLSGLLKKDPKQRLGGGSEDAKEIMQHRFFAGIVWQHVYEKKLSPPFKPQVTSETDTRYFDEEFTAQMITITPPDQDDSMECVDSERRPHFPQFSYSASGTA
# Experiment: In vitro kinase assay: peptide phosphorylation by AKT1
# Assay type: biochemical
# Conditions: normalized to best substrate
# Procedure: as §1, §2, §3, §4, §5
row,Substance,AKT1 phosphorylation [%]
1,77 (KKKKRASFKRKSSKKG) [compound 77],8
2,78 (KFARKSTRRSIRLPE) [compound 78],2
3,79 (NRKKKRTSFKRKA) [compound 79],7
4,80 (KKKKKRFSFKKSFKL) [compound 80],6
5,82 (PRLIRRGSKKRPAR) [compound 82],9
6,83 (RKIPKRPGSVHRTPSRQ) [compound 83],6
7,84 (QKKSRLRRRASQLKI) [compound 84],10
8,85 (RFARKGSLRQKNV) [compound 85],10
9,86 (RQRKRKLSFRRRTDKD) [compound 86],39
10,89 (EYLERRASRRRAV) [compound 89],1
11,90 (AQIVKRASLKRGKQ) [compound 90],3

# System: PKC
# Experiment: In vitro phosphorylation by PKC (average of isoforms alpha, epsilon, delta, theta)
# Assay type: biochemical
# Conditions: average of PKC-alpha, -epsilon, -theta, normalized to best substrate
# Procedure: as §2, §3, §4
# For kinase assays done at the standard peptide concentration of 10 μM, the peptide concentration in the reaction mixture becomes 5 μM after addition of the stop solution; consequently 10 μl of the reaction (50 pMoles of peptide) was transferred to the HBC plate. More generally, the amount of reaction mixture transferred was estimated to be about 50 pMoles of peptide. […] The HBC plates were incubated for 0.5 to 1.5 hr at room temperature for complete binding of biotinylated peptides to plate-bound streptavidin. The HBC plates were then washed extensively with PBS/Tween. Five washes were done routinely and additional wash steps were added if the wash solution removed from the plate had measurable radioactivity as detected using a Geiger counter. This step is essential to obtaining a good the signal to noise ratio because the fraction of radioactivity incorporated in the peptides was a tiny fraction of the total in the reaction mixture. The wells were air-dried. A volume of 40-50 μl of microScint-20 (Packard Instruments) was added to each well. The plates were covered with stick-on film sheet. Radioactive emissions were measured in a TopCount NXT Microplate Scintillation and Luminescence Counter (Packard Instruments). Typically samples were counted for 5 minutes (or more) to improve the signal to noise ratio when counts were low.
# Many peptides that are good substrates for PKC enzymes were identified using the methods of the invention. For example, Tables 4 and 5 provide a listing of peptides identified as potentially useful kinase substrates. […]
row,Substance,PKC average [%]
1,77 (KKKKRASFKRKSSKKG) [compound 77],80
2,78 (KFARKSTRRSIRLPE) [compound 78],63
3,79 (NRKKKRTSFKRKA) [compound 79],60
4,80 (KKKKKRFSFKKSFKL) [compound 80],56
5,82 (PRLIRRGSKKRPAR) [compound 82],56
6,83 (RKIPKRPGSVHRTPSRQ) [compound 83],55
7,84 (QKKSRLRRRASQLKI) [compound 84],53
8,85 (RFARKGSLRQKNV) [compound 85],52
9,86 (RQRKRKLSFRRRTDKD) [compound 86],48
10,89 (EYLERRASRRRAV) [compound 89],41
11,90 (AQIVKRASLKRGKQ) [compound 90],40

# Same assay, conditions: average over PKC-theta, -epsilon and -alpha at 10 and 1 uM peptide, relative to best substrate
row,Substance,"average (phosphorylation by PKC-theta, -delta, -epsilon, -alpha)"
1,145 (ISDFGLAKKLAVGRHSFSRR) [compound 145],27
2,146 (QAQRQIKRGAPPRRSSIRNA) [compound 146],27
3,147 (RDIRQSPKRGFLRSASLGRR) [compound 147],26
4,154 (KKFFTQGWAGWRKKTSFRKP) [compound 154],22
5,155 (RWDKRRWRKIPKRPGSVHRT) [compound 155],21
6,156 (SAQITIPKDGQKRKKSLRKK) [compound 156],20
7,157 (PSPSNETPKKKKKRFSFKKS) [compound 157],20
8,158 (VQMTWSYPDEKNKRASVRRR) [compound 158],19
9,159 (LYARLARAYRRSQRASFKRA) [compound 159],19
10,160 (PFEVVWYKDKRQLRSSKKYK) [compound 160],18
11,161 (KYKAFIRIPIPTRRHTFRRQ) [compound 161],18
12,162 (KKKFSFKKPFKLSGLSFKRN) [compound 162],17
13,163 (PPRTPGWHQLQPRRVSFRGE) [compound 163],16
14,164 (TEGKMARVAWKGKRRSKARK) [compound 164],16
15,165 (TEEKSKKRKKKHRKNSRKHK) [compound 165],16
16,166 (MAQIERGEARIQRRISIKKA) [compound 166],15
17,167 (GLPAPGEDKSIYRRGSRRWR) [compound 167],15

# Molecular target: T3, PKC-alpha (Homo sapiens, UniProt P17252)
# T3 construct: purchased Calbiochem
# Experiment: In vitro kinase assay: peptide phosphorylation by PKC-alpha
# Assay type: biochemical
# Conditions: normalized to best substrate
# Procedure: as §1, §2, §3, §4, §5
row,Substance,PKC alpha phosphorylation [%]
1,77 (KKKKRASFKRKSSKKG) [compound 77],100
2,78 (KFARKSTRRSIRLPE) [compound 78],69
3,79 (NRKKKRTSFKRKA) [compound 79],50
4,80 (KKKKKRFSFKKSFKL) [compound 80],65
5,82 (PRLIRRGSKKRPAR) [compound 82],61
6,83 (RKIPKRPGSVHRTPSRQ) [compound 83],41
7,84 (QKKSRLRRRASQLKI) [compound 84],39
8,85 (RFARKGSLRQKNV) [compound 85],42
9,86 (RQRKRKLSFRRRTDKD) [compound 86],47
10,89 (EYLERRASRRRAV) [compound 89],37
11,90 (AQIVKRASLKRGKQ) [compound 90],40

# Same assay, conditions: peptide concentration 1 uM
row,Substance,phosphorylation by PKC alpha
1,145 (ISDFGLAKKLAVGRHSFSRR) [compound 145],21
2,146 (QAQRQIKRGAPPRRSSIRNA) [compound 146],20
3,147 (RDIRQSPKRGFLRSASLGRR) [compound 147],13
4,154 (KKFFTQGWAGWRKKTSFRKP) [compound 154],16
5,155 (RWDKRRWRKIPKRPGSVHRT) [compound 155],10
6,156 (SAQITIPKDGQKRKKSLRKK) [compound 156],9
7,157 (PSPSNETPKKKKKRFSFKKS) [compound 157],10
8,158 (VQMTWSYPDEKNKRASVRRR) [compound 158],16
9,159 (LYARLARAYRRSQRASFKRA) [compound 159],21
10,160 (PFEVVWYKDKRQLRSSKKYK) [compound 160],9
11,161 (KYKAFIRIPIPTRRHTFRRQ) [compound 161],22
12,162 (KKKFSFKKPFKLSGLSFKRN) [compound 162],17
13,163 (PPRTPGWHQLQPRRVSFRGE) [compound 163],30
14,164 (TEGKMARVAWKGKRRSKARK) [compound 164],6
15,165 (TEEKSKKRKKKHRKNSRKHK) [compound 165],15
16,166 (MAQIERGEARIQRRISIKKA) [compound 166],22
17,167 (GLPAPGEDKSIYRRGSRRWR) [compound 167],27

# Same assay, conditions: peptide concentration 10 uM
row,Substance,phosphorylation by PKC alpha
1,145 (ISDFGLAKKLAVGRHSFSRR) [compound 145],30
2,146 (QAQRQIKRGAPPRRSSIRNA) [compound 146],24
3,147 (RDIRQSPKRGFLRSASLGRR) [compound 147],16
4,154 (KKFFTQGWAGWRKKTSFRKP) [compound 154],12
5,155 (RWDKRRWRKIPKRPGSVHRT) [compound 155],12
6,156 (SAQITIPKDGQKRKKSLRKK) [compound 156],11
7,157 (PSPSNETPKKKKKRFSFKKS) [compound 157],11
8,158 (VQMTWSYPDEKNKRASVRRR) [compound 158],11
9,159 (LYARLARAYRRSQRASFKRA) [compound 159],19
10,160 (PFEVVWYKDKRQLRSSKKYK) [compound 160],7
11,161 (KYKAFIRIPIPTRRHTFRRQ) [compound 161],8
12,162 (KKKFSFKKPFKLSGLSFKRN) [compound 162],19
13,163 (PPRTPGWHQLQPRRVSFRGE) [compound 163],10
14,164 (TEGKMARVAWKGKRRSKARK) [compound 164],6
15,165 (TEEKSKKRKKKHRKNSRKHK) [compound 165],10
16,166 (MAQIERGEARIQRRISIKKA) [compound 166],7
17,167 (GLPAPGEDKSIYRRGSRRWR) [compound 167],7
